Where no end group is shown, it is not given here.
T1: AQP2 protein (UniProt P41181 1-271, limits assumed)
T1 construct: also called protein AQP2
T1 sequence (looked up): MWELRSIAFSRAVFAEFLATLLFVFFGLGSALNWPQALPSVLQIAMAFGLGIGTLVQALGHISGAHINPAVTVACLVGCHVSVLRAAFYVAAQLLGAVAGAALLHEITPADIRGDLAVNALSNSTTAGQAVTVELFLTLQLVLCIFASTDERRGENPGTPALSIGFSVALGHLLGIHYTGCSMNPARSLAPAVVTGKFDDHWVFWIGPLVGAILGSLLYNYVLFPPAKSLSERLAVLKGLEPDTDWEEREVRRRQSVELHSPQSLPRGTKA


Experiments:
[1] = Solubility of the synthesized polypeptides; details: for solubility: polypeptides obtained by chemical solid-phase synthesis
AQP2 protein = target: T1, AQP2 protein; experiment: microscale thermophoresis (MST); column head 'Affinity (µM)'
Method: Molecular docking simulation was performed on the micropeptide HMMW and a binding protein AQP2 thereof using MOE software, to identify predicted potential interaction sites. The docking simulation was divided into the following two groups: (1) random docking of an AQP2 homotetramer with the HMMW, without limiting a binding region; and (2) random docking of an AQP2 monomer with the HMMW, without limiting a binding region. Interaction sites obtained from the above two docking methods were integrated and analyzed, and all possible binding amino acids were selected as potential key sites for alanine (Ala) mutations. Due to alanine being the smallest chiral amino acid, the impact of a specific amino acid on an overall protein biological activity can be distinguished by systematically and sequentially substituting each amino acid in a sequence with Ala. The predicted polypeptides were obtained by solid-phase synthesis, and the affinity of different mutated polypeptides to the AQP2 protein was detected by microscale thermophoresis (MST) assay.

Molecule | Kd (AQP2 protein) [µM] | further results
AGVPGFSPRRSSVEAKMQSTSCSVRKSSTVTAWPAVVLLLSWGQRRGG [HMMW-1] |  | Solubility PBS/0.1% DMSO [1]: Soluble
GVPGFSPRRSSVEAKMQSTSCSVRKSSTVTAWPAVVLLLSWGQRRGG [HMMW5-51] |  | solubility [1]: good solubility
MERAGVPGFSPRRSSKMQSTSCSVRKSSTVTAWPAVVLLLSWGQRRGG [HMMW-6] |  | Solubility PBS/0.1% DMSO [1]: Soluble
MERAGVPGFSPRRSSVEAKMQCSVRKSSTVTAWPAVVLLLSWGQRRGG [HMMW-8] |  | Solubility PBS/0.1% DMSO [1]: Soluble
MERAGVPGFSPRRSSVEAKMQSTSCSVRKSSTVPAVVLLLSWGQRRGG [HMMW-12] |  | Solubility PBS/0.1% DMSO [1]: Soluble
MERAGVPGFSPRRSSVEAKMQSTSCSVRKSSTVTAWPAVLSWGQRRGG [HMMW-14] |  | Solubility PBS/0.1% DMSO [1]: Soluble
MERAGVPGFSPRRSSVEAKMQSTSCSVRKSSTVTAWPAVVLLGQRRGG [HMMW-15] |  | Solubility PBS/0.1% DMSO [1]: Soluble
MERAGVPGFSPRRSSVEAKMQSTSCSVRKSSTVTAWPAVVLLLSWRGG [HMMW-16] |  | Solubility PBS/0.1% DMSO [1]: Soluble
MERAGVPGFSPRRSSVEAKMQSTSRKSSTVTAWPAVVLLLSWGQRRGG [HMMW-9] |  | Solubility PBS/0.1% DMSO [1]: Soluble
MERAGVPGFSPRRSSVEASTSCSVRKSSTVTAWPAVVLLLSWGQRRGG [HMMW-7] |  | Solubility PBS/0.1% DMSO [1]: Soluble
MERAGVPGFSPRVEAKMQSTSCSVRKSSTVTAWPAVVLLLSWGQRRGG [HMMW-5] |  | Solubility PBS/0.1% DMSO [1]: Soluble
MERAGVSPRRSSVEAKMQSTSCSVRKSSTVTAWPAVVLLLSWGQRRGG [HMMW-3] |  | Solubility PBS/0.1% DMSO [1]: Soluble
MERPGFSPRRSSVEAKMQSTSCSVRKSSTVTAWPAVVLLLSWGQRRGG [HMMW-2] |  | Solubility PBS/0.1% DMSO [1]: Soluble
MQSTSCSVRKSSTVTAWPAVVLLLSWGQRRGG [HMMW20-51] |  | solubility [1]: good solubility
SPRRSSVEAKMQSTSCSVRKSSTVTAWPAVVLLLSWGQRRGG [HMMW10-51] |  | solubility [1]: good solubility
SVEAKMQSTSCSVRKSSTVTAWPAVVLLLSWGQRRGG [HMMW15-51] |  | solubility [1]: good solubility
micropeptide HMMW (51-residue micropeptide encoded by a lncRNA) peptide: MERAGVPGFSPRRSSVEAKMQSTSCSVRKSSTVTAWPAVVLLLSWGQRRGG | 3.07 | 
HMMW-48A (Alanine mutant of HMMW at position 48; solid-phase synthesis) peptide: MERAGVPGFSPRRSSVEAKMQSTSCSVRKSSTVTAWPAVVLLLSWGQARGG | 11.6 | 
HMMW-27A (Alanine mutant of HMMW at position 27; solid-phase synthesis) peptide: MERAGVPGFSPRRSSVEAKMQSTSCSARKSSTVTAWPAVVLLLSWGQRRGG | 2.39 | 
HMMW-3A (Alanine mutant of HMMW at position 3; solid-phase synthesis) peptide: MEAAGVPGFSPRRSSVEAKMQSTSCSVRKSSTVTAWPAVVLLLSWGQRRGG | 2.8 | 
HMMW-22A (Alanine mutant of HMMW at position 22; solid-phase synthesis) peptide: MERAGVPGFSPRRSSVEAKMQATSCSVRKSSTVTAWPAVVLLLSWGQRRGG | 3.21 | 
HMMW-43A (Alanine mutant of HMMW at position 43; solid-phase synthesis) peptide: MERAGVPGFSPRRSSVEAKMQSTSCSVRKSSTVTAWPAVVLLASWGQRRGG | 0.36 | 
HMMW-30A (Alanine mutant of HMMW at position 30; solid-phase synthesis) peptide: MERAGVPGFSPRRSSVEAKMQSTSCSVRKASTVTAWPAVVLLLSWGQRRGG | 2.23 | 

Molecule | Kd (AQP2 protein) [µM] | further results
HMMW-19A (Alanine mutant of HMMW at position 19; solid-phase synthesis) peptide: MERAGVPGFSPRRSSVEAAMQSTSCSVRKSSTVTAWPAVVLLLSWGQRRGG | 5.11 | 
HMMW-49A (Alanine mutant of HMMW at position 49; solid-phase synthesis) peptide: MERAGVPGFSPRRSSVEAKMQSTSCSVRKSSTVTAWPAVVLLLSWGQRAGG | 20.8 | 
HMMW-25A (Alanine mutant of HMMW at position 25; solid-phase synthesis) peptide: MERAGVPGFSPRRSSVEAKMQSTSASVRKSSTVTAWPAVVLLLSWGQRRGG | 1.97 | 
HMMW-41A (Alanine mutant of HMMW at position 41; solid-phase synthesis) peptide: MERAGVPGFSPRRSSVEAKMQSTSCSVRKSSTVTAWPAVVALLSWGQRRGG | 4.32 | 
HMMW-10A (Alanine mutant of HMMW at position 10; solid-phase synthesis) peptide: MERAGVPGFAPRRSSVEAKMQSTSCSVRKSSTVTAWPAVVLLLSWGQRRGG | 4.03 | 
HMMW-32A (Alanine mutant of HMMW at position 32; solid-phase synthesis) peptide: MERAGVPGFSPRRSSVEAKMQSTSCSVRKSSAVTAWPAVVLLLSWGQRRGG | 2.01 | 
HMMW-2A (Alanine mutant of HMMW at position 2; solid-phase synthesis) peptide: MARAGVPGFSPRRSSVEAKMQSTSCSVRKSSTVTAWPAVVLLLSWGQRRGG | 2.5 | 
HMMW-12A (Alanine mutant of HMMW at position 12; solid-phase synthesis) peptide: MERAGVPGFSPARSSVEAKMQSTSCSVRKSSTVTAWPAVVLLLSWGQRRGG | 1.12 | 
HMMW-45A (Alanine mutant of HMMW at position 45; solid-phase synthesis) peptide: MERAGVPGFSPRRSSVEAKMQSTSCSVRKSSTVTAWPAVVLLLSAGQRRGG | 3.24 | 
HMMW-28A (Alanine mutant of HMMW at position 28; solid-phase synthesis) peptide: MERAGVPGFSPRRSSVEAKMQSTSCSVAKSSTVTAWPAVVLLLSWGQRRGG | 2.27 | 
HMMW-17A (Alanine mutant of HMMW at position 17; solid-phase synthesis) peptide: MERAGVPGFSPRRSSVAAKMQSTSCSVRKSSTVTAWPAVVLLLSWGQRRGG | 3.93 | 
HMMW-20A (Alanine mutant of HMMW at position 20; solid-phase synthesis) peptide: MERAGVPGFSPRRSSVEAKAQSTSCSVRKSSTVTAWPAVVLLLSWGQRRGG | 2.59 | 
HMMW-50A (Alanine mutant of HMMW at position 50; solid-phase synthesis) peptide: MERAGVPGFSPRRSSVEAKMQSTSCSVRKSSTVTAWPAVVLLLSWGQRRAG | 0.55 | 
HMMW-40A (Alanine mutant of HMMW at position 40; solid-phase synthesis) peptide: MERAGVPGFSPRRSSVEAKMQSTSCSVRKSSTVTAWPAVALLLSWGQRRGG | 1.19 | 
HMMW-8A (Alanine mutant of HMMW at position 8; solid-phase synthesis) peptide: MERAGVPAFSPRRSSVEAKMQSTSCSVRKSSTVTAWPAVVLLLSWGQRRGG | 14.8 | 
HMMW-13A (Alanine mutant of HMMW at position 13; solid-phase synthesis) peptide: MERAGVPGFSPRASSVEAKMQSTSCSVRKSSTVTAWPAVVLLLSWGQRRGG | 6.61 | 
HMMW-11A (Alanine mutant of HMMW at position 11; solid-phase synthesis) peptide: MERAGVPGFSARRSSVEAKMQSTSCSVRKSSTVTAWPAVVLLLSWGQRRGG | 2.33 | 
HMMW-44A (Alanine mutant of HMMW at position 44; solid-phase synthesis) peptide: MERAGVPGFSPRRSSVEAKMQSTSCSVRKSSTVTAWPAVVLLLAWGQRRGG | 5.23 | 
HMMW-42A (Alanine mutant of HMMW at position 42; solid-phase synthesis) peptide: MERAGVPGFSPRRSSVEAKMQSTSCSVRKSSTVTAWPAVVLALSWGQRRGG | 0.25 | 
HMMW-31A (Alanine mutant of HMMW at position 31; solid-phase synthesis) peptide: MERAGVPGFSPRRSSVEAKMQSTSCSVRKSATVTAWPAVVLLLSWGQRRGG | 3.06 | 
HMMW-21A (Alanine mutant of HMMW at position 21; solid-phase synthesis) peptide: MERAGVPGFSPRRSSVEAKMASTSCSVRKSSTVTAWPAVVLLLSWGQRRGG | 7.64 | 
HMMW-9A (Alanine mutant of HMMW at position 9; solid-phase synthesis) peptide: MERAGVPGASPRRSSVEAKMQSTSCSVRKSSTVTAWPAVVLLLSWGQRRGG | 3.95 | 
